Patent US20210380703A1 (RIGEL PHARMACEUTICALS, published 2021)
Residue numbers refer to the chain shown, from its start.

B1: 373_A07 (antibody, V domains shown)
VH: EVQLLESGGGLVQPGGSLRLSCAASGFTFSSYSMNWVRQAPGKGLEWVSNINYNGGYTGYADSVKGRFTISRDNSKNTLYLQMNSLRAEDTAVYYCARSATWHDTHLDYWGQGTLVTVSS
VL: DIQMTQSPSSLSASVGDRVTITCRASQSILTYVNWYQQKPGKAPKLLIYAATSRASGVPSRFSGSGSGTDFTLTISSLQPEDFATYYCQQSDNLPLTFGGGTKVEIK
notes: VH and VL only
B2: 375_F01 (antibody, V domains shown)
VH: B1 VH with N50S, G55S
VL: B1 VL with L30V, T31S, V33L, L47V, D92Y, N93D, L94N
notes: VH and VL only
B3: 374_G01 (antibody, V domains shown)
VH: B1 VH with S30D, G55S, G59S
VL: B1 VL with A51T, A55H, D92Y
notes: VH and VL only
B4: 375_G12 (antibody, V domains shown)
VH: B1 VH with S30D, S33G, N35H, N50S, G59S
VL: B1 VL with L30V, T31S, A55H, D92Y, N93D, L94T
notes: VH and VL only
B5: 376_G01 (antibody, V domains shown)
VH: B1 VH with S30D, S31D, N50G, G55S, T58K, G59S
VL: B1 VL with T31S, L47V, A51V, D92Y, N93E
notes: VH and VL only
B6: 376_E09 (antibody, V domains shown)
VH: B1 VH with S30D, N50G, G55S, T58K, G59S
VL: B1 VL with V33L, A55H, D92Y, N93D, L94T
notes: VH and VL only
B7: 376_A01 (antibody, V domains shown)
VH: B1 VH with S30D, S33G
VL: B1 VL with L30V, T31S, V33L, D92Y, N93S, L94T
notes: VH and VL only
B8: 373_E08 (antibody, V domains shown)
VH: B1 VH with S30D, S33G, N50G, G55S, G59S
VL: B1 VL with L30V, T31S, A51V, D92Y, N93E, L94S
notes: VH and VL only
B9: 373_D09 (antibody, V domains shown)
VH: B1 VH with S30D, N50G, G55S, G59S
VL: B1 VL with V33L, L47V, A55H, D92Y, N93E, L94N
notes: VH and VL only
B10: 374_B11 (antibody, V domains shown)
VH: B1 VH with N50G, G55S, T58K, G59S
VL: B1 VL with L47V, D92Y, N93D
notes: VH and VL only
B11: 373_D02 (antibody, V domains shown)
VH: B1 VH with G55S, T58K
VL: B1 VL with T31S, V33L, R54L, D92Y, N93D
notes: VH and VL only
B12: 374_D11 (antibody, V domains shown)
VH: B1 VH with S30D, S33G, G55S
VL: B1 VL with V33L, D92Y, N93E, L94T
notes: VH and VL only
B13: 374_F09 (antibody, V domains shown)
VH: B1 VH with S33G, N50S, G55S, G59S
VL: B1 VL with L30S, T31S, D92Y, N93S, L94T
notes: VH and VL only
B14: 374_E04 (antibody, V domains shown)
VH: B1 VH with N50G, G55S, T58K, G59S
VL: B1 VL with T31S, V33L, A51V, D92Y, L94N
notes: VH and VL only
B15: 374_C07 (antibody, V domains shown)
VH: B1 VH with S30D, G59S
VL: B1 VL with L30I, T31S, V33L, N93E
notes: VH and VL only
B16: 376_C07 (antibody, V domains shown)
VH: B1 VH with N50G, G55S, T58K
VL: B1 VL with T31S, A55H, D92Y, N93D
notes: VH and VL only
B17: 375_G10 (antibody, V domains shown)
VH: B1 VH with S33G, N50S, T58K, G59S
VL: B1 VL with L30V, V33L, L47V, A55H, D92Y, N93D, L94T
notes: VH and VL only
B18: 374_G12 (antibody, V domains shown)
VH: B1 VH with S30D, S31D, S33G, N50S, T58K, G59S
VL: B1 VL with L47V, R54L, D92Y, L94S
notes: VH and VL only
B19: 374_G02 (antibody, V domains shown)
VH: B1 VH with S30D, N50G, G55S, G59S
VL: B1 VL with V33L, T52S, R54L, A55Q, D92Y, N93D, L94T
notes: VH and VL only
B20: 373_F02 (antibody, V domains shown)
VH: B1 VH with S30D, N50G, G55S, T58K, G59S
VL: B1 VL with V33L, D92Y, N93D, L94T
notes: VH and VL only
B21: 374_E03 (antibody, V domains shown)
VH: B1 VH with G55S, T58K
VL: B1 VL with L47V, R54L, D92Y, N93D, L94T
notes: VH and VL only
B22: 374_A08 (antibody, V domains shown)
VH: B1 VH with S30D, G55S, G59S
VL: B1 VL with L30V, V33L, R54L, D92Y, N93D
notes: VH and VL only
B23: 373_H12 (antibody, V domains shown)
VH: B1 VH with S31D, N50G, G55S, T58K
VL: B1 VL with V33L, D92Y, L94S
notes: VH and VL only
B24: 376_G11 (antibody, V domains shown)
VH: B1 VH with N50G, G55S, T58K, G59S
VL: B1 VL with L30V, L47V, R54L, D92Y
notes: VH and VL only
B25: 374_E06 (antibody, V domains shown)
VH: B1 VH with S30D, N50S, G55S, T58K
VL: B1 VL with T31S, V33L, D92Y, N93D
notes: VH and VL only
B26: 375_B10 (antibody, V domains shown)
VH: B1 VH with S30D, N50G, G55S, G59S
VL: B1 VL with T31S, V33L, A55H, D92Y, N93D
notes: VH and VL only

target: T1, human ACVR2A (human, UniProt P27037 20-135, limits assumed); assay: ELISA
T1 construct: also called activin receptor, type II A
T1 sequence (P27037 20-135 limits assumed): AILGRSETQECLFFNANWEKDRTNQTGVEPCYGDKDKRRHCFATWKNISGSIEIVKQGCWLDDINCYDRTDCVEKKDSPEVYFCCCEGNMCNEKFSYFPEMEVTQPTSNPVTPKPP
In short: (§1)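 Binding signal was read by ELISA after ACVR2A-specific monoclonal antibodies were tested against human ACVR2A and mouse ACVR2A, with human Fc as the negative control.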
Further: test concentration or dose not given here.

| optical density [OD] | Binder |
| --- | --- |
| 3.52 | B1 |
| 3.16 | B2 |
| 3.34 | B3 |
| 3.36 | B4 |
| 3.34 | B5 |
| 3.74 | B6 |
| 3.24 | B7 |
| 2.97 | B8 |
| 3.46 | B9 |
| 3.69 | B10 |
| 3.73 | B11 |
| 3.64 | B12 |
| 3.53 | B13 |
| 3.74 | B14 |
| 3.65 | B15 |
| 3.7 | B16 |
| 3.48 | B17 |
| 3.19 | B18 |
| 3.52 | B19 |
| 3.62 | B20 |
| 3.72 | B21 |
| 3.59 | B22 |
| 3.06 | B23 |
| 3.65 | B24 |
| 3.84 | B25 |
| 3.65 | B26 |

target: mouse ACVR2A (mouse, UniProt P27038 20-135, limits assumed); assay: ELISA
Sequence (P27038 20-135 limits assumed): as the sequence (P27037 20-135 limits assumed) above, with K20R, V73I counted along it
In short: as §1

| optical density [OD] | Binder |
| --- | --- |
| 3.59 | B1 |
| 3.46 | B2 |
| 3.6 | B3 |
| 3.29 | B4 |
| 3.66 | B5 |
| 3.76 | B6 |
| 3.66 | B7 |
| 3.23 | B8 |
| 3.5 | B9 |
| 3.66 | B10 |
| 3.65 | B11 |
| 3.58 | B12 |
| 3.62 | B13 |
| 3.72 | B14 |
| 3.7 | B15 |
| 3.71 | B16 |
| 3.64 | B17 |
| 3.21 | B18 |
| 3.54 | B19 |
| 3.6 | B20 |
| 3.79 | B21 |
| 3.67 | B22 |
| 2.98 | B23 |
| 3.6 | B24 |
| 3.75 | B25 |
| 3.74 | B26 |

target: T2, biotinylated goat anti-human kappa light chain; assay: ELISA, positive control
T2 construct: Positive control of the ELISA
In short: as §1

| optical density [OD] | Binder |
| --- | --- |
| 3.11 | B1 |
| 2.96 | B2 |
| 2.92 | B3 |
| 3.3 | B4 |
| 3.18 | B5 |
| 3.48 | B6 |
| 2.98 | B7 |
| 3.2 | B8 |
| 3.04 | B9 |
| 3.17 | B10 |
| 3.19 | B11 |
| 2.9 | B12 |
| 3.14 | B13 |
| 3.19 | B14 |
| 3.22 | B15 |
| 3.42 | B16 |
| 3.3 | B17 |
| 3.15 | B18 |
| 3.17 | B19 |
| 3.15 | B20 |
| 3.13 | B21 |
| 2.94 | B22 |
| 3 | B23 |
| 3.54 | B24 |
| 3.25 | B25 |
| 3.14 | B26 |
